Results: the Human Domainome abundance scans (Beltran et al. 2025)
± gives the uncertainty stated by the source.

B1: Storkhead-box protein 2, residues 64 to 141; numbered along this chain, Q9P2F5 (parent)
chain: SPISQSQFIPLGEILCLAISAMNSARKPVTQEALMEHLTTCFPGVPTPSQEILRHTLNTLVRERKIYPTPDGYFIVTP

Variants of: B1
Experiment: abundance fitness (aPCA) (normalised: wild type 0, dead -1); higher = more abundant; growth selection in yeast, the domain comes from the species named
Settings: Homo sapiens

Abundance fitness: each site, then its substitutions
E63: R -0.015 ± 0.029 | V -0.049 ± 0.047 | T -0.049 ± 0.053 | D -0.004 ± 0.089 | G -0.054 ± 0.035 | Y -0.033 ± 0.13 | P -1.2 ± 0.11 | S -0.018 ± 0.033 | W -0.075 ± 0.049 | H -0.006 ± 0.075 | N -0.028 ± 0.088 | M -0.051 ± 0.077 | I -0.234 ± 0.13 | C -0.043 ± 0.055 | K 0.011 ± 0.05 | A -0.019 ± 0.039
L53: P -1.11 ± 0.19 | K -0.943 ± 0.28 | C -0.113 ± 0.14 | D -0.747 ± 0.4 | I -0.007 ± 0.11 | A -0.124 ± 0.058 | H -0.756 ± 0.18 | F -0.113 ± 0.12 | V -0.003 ± 0.047 | M 0.019 ± 0.047 | Y -0.108 ± 0.079 | Q -0.491 ± 0.11 | R -0.913 ± 0.092 | W -0.141 ± 0.024 | T 0.026 ± 0.066 | G -0.856 ± 0.068 | E -0.929 ± 0.15 | S -0.586 ± 0.053
V61: C 0.04 ± 0.078 | I -0.014 ± 0.1 | M 0.052 ± 0.067 | N -0.432 ± 0.28 | L -0.05 ± 0.046 | D -0.186 ± 0.1 | T 0.019 ± 0.071 | E -0.028 ± 0.062 | A 0.029 ± 0.042 | K -0.146 ± 0.077 | S -0.008 ± 0.043 | Y -0.208 ± 0.13 | H -0.122 ± 0.097 | P -1.05 ± 0.14 | Q -0.013 ± 0.095 | F -0.166 ± 0.1
L60: Q -0.342 ± 0.049 | F -0.401 ± 0.068 | I -0.384 ± 0.1 | T -0.87 ± 0.075 | R -1.07 ± 0.079 | C -0.107 ± 0.076 | S -0.828 ± 0.052 | M -0.126 ± 0.055 | G -0.706 ± 0.057 | N -0.927 ± 0.17 | E -0.835 ± 0.11 | H -0.719 ± 0.11 | V -0.587 ± 0.052 | P -1.07 ± 0.099 | Y -0.666 ± 0.12 | A -0.213 ± 0.044 | W -0.525 ± 0.067
Q50: S -0.034 ± 0.069 | I 0.047 ± 0.12 | H -0.022 ± 0.1 | M 0.036 ± 0.083 | Y 0.174 ± 0.19 | F 0.013 ± 0.16 | D 0.118 ± 0.15 | G 0.053 ± 0.044 | A -0.011 ± 0.053 | R -0.036 ± 0.043 | C -0.076 ± 0.1 | P -0.055 ± 0.081 | N -0.08 ± 0.16 | W -0.082 ± 0.067 | V -0.131 ± 0.059 | T -0.08 ± 0.086 | K -0.014 ± 0.097
H55: K 0.007 ± 0.07 | F -0.057 ± 0.08 | T 0.065 ± 0.051 | E 0.028 ± 0.052 | N 0.109 ± 0.083 | L -0.088 ± 0.039 | P -0.223 ± 0.051 | V -0.035 ± 0.039 | D 0.07 ± 0.074 | Y -0.181 ± 0.11 | A 0.007 ± 0.045 | W -0.087 ± 0.091 | G 0.06 ± 0.035 | C -0.033 ± 0.058 | I -0.103 ± 0.12 | R -0.055 ± 0.045 | S -0.005 ± 0.04
I66: A -0.173 ± 0.05
P48: R -0.415 ± 0.035 | W -0.28 ± 0.045 | A -0.186 ± 0.044 | F -0.141 ± 0.072 | M -0.099 ± 0.13 | T -0.357 ± 0.054 | H -0.354 ± 0.065 | C -0.085 ± 0.048 | E -0.447 ± 0.069 | S -0.418 ± 0.039 | G -0.311 ± 0.034 | I -0.016 ± 0.069 | N -0.5 ± 0.099 | L -0.259 ± 0.039 | Q -0.156 ± 0.071 | D -0.398 ± 0.055 | K -0.44 ± 0.15 | Y -0.201 ± 0.06
I52: W -0.019 ± 0.056 | D -0.043 ± 0.11 | N -0.46 ± 0.17 | P -0.654 ± 0.09 | F 0.011 ± 0.088 | R -0.086 ± 0.045 | Y 0.171 ± 0.27 | K -0.029 ± 0.072 | C -0.038 ± 0.094 | G -0.083 ± 0.036 | V 0.035 ± 0.044 | T 0.025 ± 0.069 | L -0.05 ± 0.052 | H 0.011 ± 0.092 | S -0.134 ± 0.054 | A -0.085 ± 0.045 | E -0.042 ± 0.057 | M 0.056 ± 0.064
T59: P -0.921 ± 0.1 | M -0.023 ± 0.061 | E 0.049 ± 0.061 | H 0.049 ± 0.082 | K -0.047 ± 0.077 | N -0.087 ± 0.056 | R -0.001 ± 0.036 | V 0.035 ± 0.035 | W 0.062 ± 0.048 | Q -0.031 ± 0.052 | L 0.067 ± 0.034 | A 0.017 ± 0.045 | C 0.122 ± 0.076 | G 0.015 ± 0.033 | F 0.018 ± 0.064 | S 0.104 ± 0.043 | I 0.029 ± 0.074 | D -0.016 ± 0.063
L57: M -0.066 ± 0.069 | Q -0.924 ± 0.26 | W -0.269 ± 0.076 | D -0.793 ± 0.24 | R -1.11 ± 0.12 | E -0.784 ± 0.26 | G -1.01 ± 0.082 | I -0.04 ± 0.11 | H -1.1 ± 0.21 | K -0.953 ± 0.28 | S -0.799 ± 0.068 | A -0.576 ± 0.058 | T -0.193 ± 0.058 | C -0.202 ± 0.083 | P -1.22 ± 0.14 | F -0.306 ± 0.18
N58: V 0.002 ± 0.035 | G 0 ± 0.031 | K -0.071 ± 0.059 | H 0.017 ± 0.13 | S -0.03 ± 0.048 | Q -0.03 ± 0.037 | D -0.005 ± 0.078 | E 0.001 ± 0.065 | F -0.172 ± 0.068 | W -0.093 ± 0.054 | P -0.678 ± 0.074 | L -0.025 ± 0.041 | T -0.018 ± 0.056 | R -0.016 ± 0.036 | Y -0.203 ± 0.11 | C -0.052 ± 0.072 | I -0.041 ± 0.076 | A 0.033 ± 0.04
E51: R -0.231 ± 0.049 | Q -0.099 ± 0.071 | K 0.003 ± 0.098 | G -0.1 ± 0.044 | M -0.203 ± 0.099 | A -0.085 ± 0.048 | F -0.207 ± 0.1 | D 0.028 ± 0.11 | W -0.145 ± 0.062 | N -0.301 ± 0.17 | V -0.145 ± 0.051 | Y -0.161 ± 0.1 | S -0.039 ± 0.056 | H 0.027 ± 0.18 | T -0.085 ± 0.088 | P 0.009 ± 0.052 | C -0.104 ± 0.077
T47: Y -0.132 ± 0.085 | E -0.199 ± 0.05 | Q -0.067 ± 0.054 | A -0.082 ± 0.034 | V 0.071 ± 0.031 | F -0.273 ± 0.055 | K 0.021 ± 0.056 | W -0.397 ± 0.04 | N -0.151 ± 0.1 | D -0.277 ± 0.067 | P -0.191 ± 0.049 | G -0.197 ± 0.026 | S -0.092 ± 0.041 | L -0.073 ± 0.032 | R -0.018 ± 0.032 | C -0.115 ± 0.053 | H -0.166 ± 0.12 | I 0.11 ± 0.064
T56: Q -0.045 ± 0.066 | L 0.054 ± 0.043 | Y -0.26 ± 0.23 | E -0.087 ± 0.087 | K -0.052 ± 0.1 | P -1.03 ± 0.12 | W -0.022 ± 0.058 | D -0.069 ± 0.1 | S -0.005 ± 0.045 | M 0.058 ± 0.085 | G -0.051 ± 0.043 | A -0.046 ± 0.05 | C -0.056 ± 0.074 | V -0.042 ± 0.044 | F -0.036 ± 0.034
P46: W -0.174 ± 0.044 | T -0.03 ± 0.056 | Y -0.402 ± 0.17 | V -0.086 ± 0.04 | N -0.124 ± 0.12 | Q -0.187 ± 0.06 | R -0.157 ± 0.034 | S -0.15 ± 0.045 | M -0.107 ± 0.058
R62: H -0.051 ± 0.14 | T 0.053 ± 0.051 | E 0.017 ± 0.075 | W -0.081 ± 0.049 | P -0.944 ± 0.091 | D -0.05 ± 0.11 | Y 0.076 ± 0.21 | C -0.047 ± 0.066 | G -0.008 ± 0.038 | K -0.109 ± 0.18 | I 0.006 ± 0.07 | L -0.037 ± 0.034 | M 0.045 ± 0.095 | A 0.049 ± 0.049
R64: D -0.029 ± 0.09 | M -0.138 ± 0.079 | A -0.029 ± 0.041 | H 0.039 ± 0.12 | S -0.021 ± 0.045 | F -0.286 ± 0.082 | P -1.09 ± 0.14 | I -0.619 ± 0.14 | W -0.211 ± 0.041 | L -0.124 ± 0.044 | G 0.031 ± 0.034 | N -0.043 ± 0.13 | V -0.22 ± 0.049 | Q -0.043 ± 0.099 | C -0.128 ± 0.068 | Y -0.174 ± 0.17 | K 0.061 ± 0.11 | E 0.112 ± 0.075
R54: Y -0.117 ± 0.33 | G 0.057 ± 0.1 | D -0.365 ± 0.2 | P -0.401 ± 0.11 | Q 0.066 ± 0.082 | L -0.011 ± 0.039 | S 0.015 ± 0.06 | N 0.012 ± 0.25 | V -0.012 ± 0.1 | M 0 ± 0.081 | A 0.015 ± 0.1 | I -0.037 ± 0.19 | C -0.193 ± 0.17 | E 0.013 ± 0.15 | F -0.082 ± 0.24 | H -0.367 ± 0.14 | W -0.285 ± 0.091 | K -0.027 ± 0.3
K65: P -0.967 ± 0.1 | W -0.209 ± 0.047 | S -0.082 ± 0.058 | F -0.084 ± 0.093 | V 0 ± 0.048 | L -0.06 ± 0.039 | T -0.03 ± 0.063 | A -0.134 ± 0.054 | R -0.031 ± 0.038 | I -0.21 ± 0.21 | G -0.541 ± 0.037 | D -0.443 ± 0.089 | Y -0.154 ± 0.14 | C -0.208 ± 0.072 | Q 0.078 ± 0.067 | M -0.171 ± 0.064 | N -0.493 ± 0.31 | H 0.013 ± 0.084 | E -0.167 ± 0.079
S49: M -0.68 ± 0.1 | I -0.835 ± 0.12 | K -0.139 ± 0.055 | V -0.575 ± 0.043 | L -0.684 ± 0.055 | A -0.109 ± 0.035 | Q -0.265 ± 0.082 | T -0.16 ± 0.055 | N -0.173 ± 0.11 | G -0.068 ± 0.032 | P -0.27 ± 0.045 | E -0.24 ± 0.063 | C -0.068 ± 0.053 | F -0.887 ± 0.1 | R -0.21 ± 0.036 | H -0.225 ± 0.077
